Molecular target: recombinant CD47 (integrin associated protein), K24-S139, GST-fused (human)
Experiment: SPR; Biacore X100; recombinant CD47 immobilised on a CM5 chip (amine coupling), analyte at 0.125, 0.25, 0.5, 1 and 2 uM, single-cycle kinetics, 120 s contact, 180 s dissociation (last cycle 580 s); HBS-EP+ (10 mM HEPES pH 7.4, 150 mM NaCl, 3 mM EDTA, 0.05% P20)

recombinant PfMSA180-Tr4 (PfMSA180 truncate 4, residues A805-P1093) (domain or fragment)
Kd: 2.06 nM
stoichiometry N: 1

— publication PMC6459815
